Assay results published in article PMC2148128.

How the values were obtained:
[1] = target: Crn1p (coronin1p), full-length recombinant (amino acids 1–651) (S. cerevisiae) (UniProt Q06440); assay: co-sedimentation
[2] = target: taxol-stabilized bovine brain microtubules (tubulin) (bovine) (UniProt Q6B856); assay: co-sedimentation

Row | Molecule | Kd [1] [nM] | Kd [2] [µM] | percent of Crn1p bound at 2 μM microtubules [2] [%] | percent of Crn1p bound at 10 μM microtubules [2] [%]
1 | taxol-stabilized bovine brain microtubules (tubulin) (from UniProt Q6B856 1-445) (complex) | 2000 | – | – | –
2 | Crn1p (coronin1p), full-length recombinant (amino acids 1–651) (natural protein) MSGKFVRASKYRHVFGQAAKKELQYEKLKVTNNAWDSNLLKTNGKFIAVNWNASGGGAFAVIPIEEVGKAPDQVPLFRGHTAQVLDTDFDPFNDHRIASGSDDSKIGIWDIPENYKFHDHVDEDGEPIDIKPVKFLTGHARKVGHVLYHPVAENVLASSSGDYTVKLWNVETGKDMITLKHPDMVTSMSFSYDGNYLATVARDKKLRVWNIREEKIVSEGPAHTGAKNQRVVWLGNSDRLATTGFSKLSDRQIGIWDAFNIEKGDLGGFYTVDQSSGILMPFYDEGNKILYLVGKGDGNIRYYEFQNDELFELSEFQSTEAQRGFAVAPKRMVNVKENEVLKGFKTVVDQRIEPVSFFVPRRSEEFQEDIYPDAPSNKPALTAEEWFSGKSVEGPILVSMRSIYDGSAPSFHEAKRPQQPTTQETALEEKKEQPKVEKPISESEKEVKQEAPKSPSPLKSASSSSTINHVLKEDNSINKLLKKSSDIDQVNNAEDPSRDTSGWEEADDEPAPIKIETPVTPTETKKDRTPKVEPSKELKPEPVSIATDRKQEQSLPQEEKSSEKTKSPEQEKSATPPSSITAAKTAITASSKEEPSAARTSPKSLGLKKSVEKLSTLVLQLEDVVDKLTKANLDKDERLLKLEQKIGELSK | – | 15 to 20 | 20 | 40
